Assay [1] deals with T1, INCENP N-terminal domain (1-58), His- and Avi-tagged, biotinylated (UniProt Q9NQS7 1-58, biotinylated (Avi-tag, co-expressed E. coli biotin ligase BirA)).
T1 construct: range 1-58; Expressed in E. coli BL21(DE3); also called INC-N; INCENP N-terminal domain (AA 1-58); not shown: His-tag and Avi-tag
T1 sequence (looked up): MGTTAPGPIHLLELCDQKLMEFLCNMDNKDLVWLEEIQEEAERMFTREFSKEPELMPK
In words: single-point protein ELISA, 200 nM Fab on 50 nM immobilised biotinylated target, protein L-HRP, A450. As for the experimental part: To rapidly reconfirm the binding and specificity of the obtained Fabs after reformatting into the expression vectors single-point Fab ELISA was performed (FIG. 2). Briefly, 50 nM Avi-tagged targets were immobilized on the prepared NAV-coated and blocked with 0.5% BSA in PBS 96-well ELISA plates. The target coated plates were washed with appropriate buffer (TBST or PBST) and were incubated with 200 nM Fab for 20 minutes and then washed. The washed plates were incubated with protein L conjugated with HRP (1:5000 diluted in TBST) for 30 minutes. Plates were washed and the reaction was developed using the TMB chromogenic substrate (Thermofisher) and subsequently quenched with 1M HCl. Absorbance was read at 450 nm on Epoch plate reader.

Assay [2] deals with T2, INCENP displayed on the surface of cancer cells (UniProt Q9NQS7 1-918, limits assumed).
T2 construct: whole, on cells; The sentence says 'various cancer cell lines'; also called cell surface INCENP
In words: flow cytometry, 200 nM Fab on MCF7 breast cancer cells, anti-human F(ab')2-A647 secondary, MFI. The protocol:
(§1) Human or murine tumor cells were trypsinized, washed and resuspended in Flow buffer (1×PBS supplemented with 2% FBS) and added to a 96-well plate (#3799, Costar). 200 nM primary CPC Fab was mixed with 0.5M cells and incubated at 37 C for 20 min. Cells were washed with Flow buffer and stained with anti-human-FAB′2-A647 secondary antibody (#109-605-006, Jackson, 1:200) for 20 min at room temperature and washed again. Samples were analyzed by flow cytometry using CytoFLEX (Beckman Coulter) and mean fluorescence intensity (MFI) data was extracted using the FlowJo software (FIG. 4A-E, FIG. 5). Human peripheral blood mononuclear cells (PBMCs) derived from a single patient were used as a source of healthy human cells. PBMCs were counted, split and spun down 400×g 5 min. Cells were resuspended in Flow buffer (1×PBS supplemented with 2% FBS) and pre-incubated with TruStain FcX (1:20, Biolegend 422302) for 10 min at 37 C, followed by 200 nM primary Fab incubation at 37 for 20 min. Cells were washed twice and stained with secondary antibody (Alexa Fluor 647 AffiniPure Goat Anti-Human IgG, F(ab′)2 fragment specific, #109-605-006, Jackson, 1:200), for 20 min at RT, washed twice and analyzed by using CytoFLEX (Beckman Coulter). Mean fluorescence intensity (MFI) data was extracted using the FlowJo software (FIG. 4F).

For assay [3], the target named is T1, INCENP N-terminal domain (1-58), His- …. In words: SPR, target immobilised on NTA chip via His-tag, two-fold Fab dilutions from 100 nM, 1:1 Langmuir fit. As for the experimental part: The targets were immobilized onto a nitrilotriacetic acid (NTA) sensor chip via His-tag. 2-fold serial dilutions of the Fab were injected following ligand immobilization on the sensor chip. For each kinetic assay at least five dilutions of the Fab were tested. The data were fitted using 1:1 Langmuir Model to obtain the on-rate, off-rate and the affinity (KD) of the Fab-target interaction. (FIG. 3).
In general terms: Surface plasmon resonance follows binding to a sensor surface in real time, without labels.

Assay [4] deals with T2, INCENP displayed on the surface of …. In words: flow cytometry, 200 nM Fab on MDA-231 breast cancer cells, anti-human F(ab')2-A647 secondary, MFI. The protocol:
as §1

Assay [5] addresses T3, INCENP on the surface of murine tumor cells (Mus musculus, UniProt Q9WU62).
T3 construct: kept apart from m4 because the cells are murine; also called cell surface INCENP on CT26, MC38 and 4T1 cells
T3 sequence (single chain, looked up): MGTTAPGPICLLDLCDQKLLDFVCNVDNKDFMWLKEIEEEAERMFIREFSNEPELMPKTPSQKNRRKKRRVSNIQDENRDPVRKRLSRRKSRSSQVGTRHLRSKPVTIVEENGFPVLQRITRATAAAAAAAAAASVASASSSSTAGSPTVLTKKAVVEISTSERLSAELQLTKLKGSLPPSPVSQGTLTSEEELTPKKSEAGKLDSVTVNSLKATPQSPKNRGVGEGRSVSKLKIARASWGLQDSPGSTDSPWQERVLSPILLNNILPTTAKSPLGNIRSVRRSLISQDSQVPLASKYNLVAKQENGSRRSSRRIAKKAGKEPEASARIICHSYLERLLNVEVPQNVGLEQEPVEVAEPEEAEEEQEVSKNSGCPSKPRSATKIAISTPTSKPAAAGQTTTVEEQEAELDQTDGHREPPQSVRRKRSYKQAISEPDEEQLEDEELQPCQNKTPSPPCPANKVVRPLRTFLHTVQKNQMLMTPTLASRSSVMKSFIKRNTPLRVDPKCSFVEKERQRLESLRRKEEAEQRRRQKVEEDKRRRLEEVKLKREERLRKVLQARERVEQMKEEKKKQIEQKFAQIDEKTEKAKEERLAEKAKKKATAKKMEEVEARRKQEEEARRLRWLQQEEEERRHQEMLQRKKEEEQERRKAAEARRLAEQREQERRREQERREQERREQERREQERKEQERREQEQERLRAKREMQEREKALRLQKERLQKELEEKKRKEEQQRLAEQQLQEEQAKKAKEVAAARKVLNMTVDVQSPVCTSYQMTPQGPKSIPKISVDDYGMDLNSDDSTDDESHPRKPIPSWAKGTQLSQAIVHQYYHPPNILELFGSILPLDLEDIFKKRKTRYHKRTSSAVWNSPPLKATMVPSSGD
In words: flow cytometry, 200 nM Fab on CT26 murine colorectal carcinoma cells, anti-human F(ab')2-A647 secondary, MFI [CT26]. As for the experimental part:
as §1

Substitutions are numbered along the chain they refer to.

B1: INC-N-01 (Fab, V domains shown)
VH: EVQLVESGGGLVQPGGSLRLSCAASGFNVYYYSIHWVRQAPGKGLEWVASIYPSSGSTYYADSVKGRFTISADTSKNTAYLQMNSLRAEDTAVYYCARQWLYMLWPMWGLDYWGQGTLVTVSS
VL: DIQMTQSPSSLSASVGDRVTITCRASQSVSSAVAWYQQKPGKAPKLLIYSASSLYSGVPSRFSGSRSGTDFTLTISSLQPEDFATYYCQQSYYWPITFGQGTKVEIKR
notes: also called INC-N-01 Fab
On to B1, for which the binding result in assay [1] is recorded as “binds”.

B2: INC-N-34 (Fab, V domains shown)
VH: EVQLVESGGGLVQPGGSLRLSCAASGFNVSSSSIHWVRQAPGKGLEWVASIYPSSGYTSYADSVKGRFTISADTSKNTAYLQMNSLRAEDTAVYYCARKLAYYWGAQWSYSGYKGMDYWGQGTLVTVSS
VL: B1 VL with Y93W, W94Y
notes: also called INC-N-34 Fab
As to B2, the binding result in assay [1] and in assay [2] was “binds” throughout.

B3: INC-N-13 (Fab, V domains shown)
VH: EVQLVESGGGLVQPGGSLRLSCAASGFNVSYYSIHWVRQAPGKGLEWVASIYPYSGSTYYADSVKGRFTISADTSKNTAYLQMNSLRAEDTAVYYCARYPYYVYWYYWWYYALDYWGQGTLVTVSS
VL: B1 VL with Y92W, Y93S, W94Y
notes: also called INC-N-13 Fab
The Kd is the free concentration of one partner at which half of the binding sites on the other are occupied at equilibrium, for simple one-to-one binding. Low readings indicate higher affinity, high ones lower affinity. Usually koff stands for the first-order rate constant of dissociation. Higher therefore signals fast dissociation. By kon is commonly meant the rate constant with which the complex forms. High values mean fast association, low ones slow association. Consider B3, for which, in assay [3], the Kd amounted to 20 nM, the dissociation rate constant (koff) was 0.0029 s⁻¹ and the kon worked out at 140000 M⁻¹ s⁻¹.

B4: INC-N-12 (Fab, V domains shown)
VH: EVQLVESGGGLVQPGGSLRLSCAASGFNFSSSSIHWVRQAPGKGLEWVASIYSYSGSTYYADSVKGRFTISADTSKNTAYLQMNSLRAEDTAVYYCARYHWYYYWYWGGVSPAMDYWGQGTLVTVSS
VL: B1 VL with S91M, Y92R, W94Y
notes: also called INC-N-12 Fab
On to B4, for which the binding result in assay [1] is recorded as “binds”.

B5: INC-N-11 (Fab, V domains shown)
VH: EVQLVESGGGLVQPGGSLRLSCAASGFNVSYYSIHWVRQAPGKGLEWVASIYPSSGSTYYADSVKGRFTISADTSKNTAYLQMNSLRAEDTAVYYCARMYPSWMLYPYYMFAGMDYWGQGTLVTVSS
VL: B1 VL with S91R, Y92W, Y93V, W94Y
notes: also called INC-N-11 Fab
In assay [3], B5 registered a dissociation constant (Kd) of 4.2 nM, a koff of 0.0031 s⁻¹ and an on-rate constant (kon) of 740000 M⁻¹ s⁻¹.

B6: INC-N-19 (Fab, V domains shown)
VH: EVQLVESGGGLVQPGGSLRLSCAASGFNVYYSYIHWVRQAPGKGLEWVASIYPYSGYTSYADSVKGRFTISADTSKNTAYLQMNSLRAEDTAVYYCARWRWPGLQFGYGMDYWGQGTLVTVSS
VL: B1 VL with Y93W, I96L
notes: also called INC-N-19 Fab
For the molecule B6, in assay [1], the binding result is “binds”.

B7: INC-N-35 (Fab, V domains shown)
VH: EVQLVESGGGLVQPGGSLRLSCAASGFNFYSYSIHWVRQAPGKGLEWVASISSSSGSTSYADSVKGRFTISADTSKNTAYLQMNSLRAEDTAVYYCARHFHNPYSWDYWYGWYTALDYWGQGTLVTVSS
VL: B1 VL with Y92S, Y93S, W94S, P95L
notes: also called INC-N-35 Fab
As for B7, the binding result in assay [1] and in assay [4] was “binds” each time.

B8: INC-N-06 (Fab, V domains shown)
VH: EVQLVESGGGLVQPGGSLRLSCAASGFNISYSSIHWVRQAPGKGLEWVASIYPYSGSTYYADSVKGRFTISADTSKNTAYLQMNSLRAEDTAVYYCARWSLYGKWYYWWYGLDYWGQGTLVTVSS
VL: B1 VL with S91G, Y92S, W94Y
notes: also called INC-N-06 Fab
As to B8, the binding result in assay [5] was “binds”. Further, in assay [3], binding was characterised by a dissociation constant (Kd) of 6.3 nM, the koff came out at 0.0049 s⁻¹ and the kon was determined as 770000 M⁻¹ s⁻¹.

B9: INC-N-14 (Fab, V domains shown)
VH: EVQLVESGGGLVQPGGSLRLSCAASGFNVSSYSIHWVRQAPGKGLEWVASIYPSSGSTYYADSVKGRFTISADTSKNTAYLQMNSLRAEDTAVYYCARKGYGWFYYYIEWYSPYAFDYWGQGTLVTVSS
VL: B1 VL with W94Y, I96V
notes: light chain shared with INC-N-18; also called INC-N-14 Fab
Regarding B9, the binding result in assay [1] is given as “binds”.

B10: INC-N-04 (Fab, V domains shown)
VH: EVQLVESGGGLVQPGGSLRLSCAASGFNFYSYSIHWVRQAPGKGLEWVASIYSYSGYTYYADSVKGRFTISADTSKNTAYLQMNSLRAEDTAVYYCARYPLYFQYRKYYGIDYWGQGTLVTVSS
VL: B1 VL with S91G, Y92W, W94Y
notes: also called INC-N-04 Fab
In assay [3], B10 gave a Kd of 14.8 nM, a koff of 0.011 s⁻¹ and a kon of 760000 M⁻¹ s⁻¹.

B11: INC-N-08 (Fab, V domains shown)
VH: EVQLVESGGGLVQPGGSLRLSCAASGFNFSSSSIHWVRQAPGKGLEWVASIYSYYGSTSYADSVKGRFTISADTSKNTAYLQMNSLRAEDTAVYYCARWMYKGYIFYQYFGLDYWGQGTLVTVSS
VL: B1 VL with Y92F, Y93S, W94N, P95L
notes: also called INC-N-08 Fab
Turning to B11, the binding result in assay [1] is listed as “binds”.

B12: INC-N-38 (Fab, V domains shown)
VH: EVQLVESGGGLVQPGGSLRLSCAASGFNVYSSSIHWVRQAPGKGLEWVAYISSYSGYTYYADSVKGRFTISADTSKNTAYLQMNSLRAEDTAVYYCARTIYSSSYFYTWFIYGAAFDYWGQGTLVTVSS
VL: B1 VL with Y92W, Y93M, W94Y
notes: also called INC-N-38 Fab
In assay [3], B12 yielded a Kd of 1.2 nM, an off-rate (koff) of 0.0005 s⁻¹ and a kon of 420000 M⁻¹ s⁻¹.

The values are drawn from patent US20240408138A1 (UNIVERSITY OF CHICAGO, published 2024).
